In patent publication US20080090254:

Biological target: GST-poly(Glu, Tyr) substrate
Sequence (chain, as listed by the source): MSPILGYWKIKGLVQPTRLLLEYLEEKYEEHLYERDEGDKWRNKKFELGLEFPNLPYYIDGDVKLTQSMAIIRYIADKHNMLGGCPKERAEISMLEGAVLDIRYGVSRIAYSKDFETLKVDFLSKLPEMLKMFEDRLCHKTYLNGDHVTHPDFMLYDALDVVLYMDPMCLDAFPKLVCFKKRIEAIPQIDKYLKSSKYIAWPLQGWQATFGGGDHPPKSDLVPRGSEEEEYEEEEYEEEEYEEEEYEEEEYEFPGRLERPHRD

Protein	phosphorylation of the substrate, Western blotting with anti-phosphotyrosine
PDGF Receptor β Kinase (protein) RYEIRWKVIESVSSDGHEYIYVDPMQLPYDSTWELPRDQLVLGRTLGSGAFGQVVEATAHGLSHSQATMKVAVKMLKSTARSSEKQALMSELKIMSHLGPHLNVVNLLGACTKGGPIYIITEYCRYGDLVDYLHRNKHTFLQHHSDKRRPPSAELYSNALPVGLPLPSHVSLTGESDGGYMDMSKDESVDYVPMLDMKGDVKYADIESSNYMAPYDNYVPSAPERTCRATLINESPVLSYMDLVGFSYQVANGMEFLASKNCVHRDLAARNVLICEGKLVKICDFGLARDIMRDSNYISKGSTFLPLKWMAPESIFNSLYTTLSDVWSFGILLWEIFTLGGTPYPELPMNEQFYNAIKRGYRMAQPAHASDEIYEIMQKCWEEKFEIRPPFSQLVLLLERLLGEGYKKKYQQVDEEFLRSDHPAILRSQARLPGFHGLRSPLDTSSVLYTAVQPNEGDNDYIIPLPDPKPEVADEGPLEGSPSLASSTLNEVNTSSTISCDSPLEPQDEPEPEPQLELQVEPEPELEQLPDSGCPAPRAEAEDSFL	At + of all (i to vii) of FIG. 1, a single band was seen at positions where the phosphorylated GST-poly (Glu, Tyr) substrate appears
VEGF Receptor 1 Kinase (protein) RKMKRSSSEIKTDYLSIIMDPDEVPLDEQCERLPYDASKWEFARERLKLGKSLGRGAFGKVVQASAFGIKKSPTCRTVAVKMLKEGATASEYKALMTELKILTHIGHHLNVVNLLGACTKQGGPLMVIVEYCKYGNLSNYLKSKRDLFFLNKDAALHMEPKKEKMEPGLEQGKKPRLDSVTSSESFASSGFQEDKSLSDVEEEEDSDGFYKEPITMEDLISYSFQVARGMEFLSSRKCIHRDLAARNILLSENNVVKICDFGLARDIYKNPDYVRKGDTRLPLKWMAPESIFDKIYSTKSDVWSYGVLLWEIFSLGGSPYPGVQMDEDFCSRLREGMRMRAPEYSTPEIYQIMLDCWHRDPKERPRFAELVEKLGDLLQANVQQDGKDYIPINAILTGNSGFTYSTPAFSEDFFKESISAPKFNSGSSDDVRYVNAFKFMSLERIKTFEELLPNATSMFDDYQGDSSTLLASPMLKRFTWTDSKPKASLKIDLRVTSKSKESGLSDVSRPSFCHSSCGHVSEGKRRFTYDHAELERKIACCSPPPDYNSVVLYSTPPI	At + of all (i to vii) of FIG. 1, a single band was seen at positions where the phosphorylated GST-poly (Glu, Tyr) substrate appears
ErbB4 Kinase (protein) RRKSIKKKRALRRFLETELVEPLTPSGTAPNQAQLRILKETELKRVKVLGSGAFGTVYKGIWVPEGETVKIPVAIKILNETTGPKANVEFMDEALIMASMDHPHLVRLLGVCLSPTIQLVTQLMPHGCLLEYVHEHKDNIGSQLLLNWCVQIAKGMMYLEERRLVHRDLAARNVLVKSPNHVKITDFGLARLLEGDEKEYNADGGKMPIKWMALECIHYRKFTHQSDVWSYGVTIWELMTFGGKPYDGIPTREIPDLLEKGERLPQPPICTIDVYMVMVKCWMIDADSRPKFKELAAEFSRMARDPQRYLVIQGDDRMKLPSPNDSKFFQNLLDEEDLEDMMDAEEYLVPQAFNIPPPIYTSRARIDSNRSEIGHSPPPAYTPMSGNQFVYRDGGFAAEQGVSVPYRAPTSTIPEAPVAQGATAEIFDDSCCNGTLRKPVAPHVQEDSSTQRYSADPTVFAPERSPRGELDEEGYMTPMRDKPKQEYLNPVEENPFVSRRKNGDLQALDNPEYHNASNGPPKAEDEYVNEPLYLNTFANTLGKAEYLKNNILSMPEKAKKAFDNPDYWNHSLPPRSTLQHPDYLQEYSTKYFYKQNGRIRPIVAENPEYLSEFSLKPGTVLPPPPYRHRNTVV	At + of all (i to vii) of FIG. 1, a single band was seen at positions where the phosphorylated GST-poly (Glu, Tyr) substrate appears
IGF-1Receptor Kinase (protein) RKRNNSRLGNGVLYASVNPEYFSAADVYVPDEWEVAREKITMSRELGQGSFGMVYEGVAKGVVKDEPETRVAIKTVNEAASMRERIEFLNEASVMKEFNCHHVVRLLGVVSQGQPTLVIMELMTRGDLKSYLRSLRPEMENNPVLAPPSLSKMIQMAGEIADGMAYLNANKFVHRDLAARNCMVAEDFTVKIGDFGMTRDIYETDYYRKGGKGLLPVRWMSPESLKDGVFTTYSDVWSFGVVLWEIATLAEQPYQGLSNEQVLRFVMEGGLLDKPDNCPDMLFELMRMCWQYNPKMRPSFLEIISSIKEEMEPGFREVSFYYSEENKLPEPEELDLEPENMESVPLDPSASSSSLPLPDRHSGHKAENGPGPGVLVLRASFDERQPYAHMNGGRKNERALPLPQSSTC	At + of all (i to vii) of FIG. 1, a single band was seen at positions where the phosphorylated GST-poly (Glu, Tyr) substrate appears
